The term stoichiometry N denotes the number of molecules, sites or subunits per partner or assembly. A word on the koff: it is a measure of how fast the partners let go of each other.

Experimental findings from article PMC5528842, “The mechanism of monomer transfer between two structurally distinct PrP oligomers” (PLoS ONE, 2017) are described below.

Values joined by “and” are separate entries in the source; they are usually repeats but may differ in a detail not shown here. Identical values can stand only once.

Data set [1] concerns the molecule itself. In words: […], sodium citrate 20 mM pH 4.0, […].
Data set [2] deals with the molecule itself. The experiment in a line: static light scattering + SEC.

B1: Full-length Ovine PrP 23-234 (Ala-136, Arg-154, Gln-171 variant) (natural protein)
chain: not shown
notes: also called OvPrP; ARQ PrP
B1: the “stoichiometry N” value in data set [1] lay in the range of 25 to 70 mer. In addition, the koff in data set [2] was 0.00403 s⁻¹ and 0.0038 s⁻¹ and 0.01 s⁻¹.
